Source: patent US6156555

What was measured:
[1] = molecular target: phenylalanyl-glycyl-phenylalanyl-glycine
[2] = molecular target: phenylalanyl-glycyl-phenylalanyl-hydroxylglycine

Substance	Enzyme activity n mole/h/ml medium; substrate PheGlyPheGly, product PheGlyPhe-hydroxyGly [1] [nmol/h/mL]	Enzyme activity n mole/h/ml medium; substrate PheGlyPhehydroxyGly, product PheGlyPhe-NH2 + glyoxylic acid [2] [nmol/h/mL]
enzyme expressed by plasmid SV-a (rat; signal sequence + N-terminal domain) (from UniProt P14925)	2.8	< 2
enzyme expressed by plasmid SV-b (rat; signal sequence + C-terminal domain) (from UniProt P14925)	0.4	10.8
enzymes expressed by plasmid SV-203 (rat; signal sequence + N-terminal domain + C-terminal domain) (from UniProt P14925)	2.5	4.2
